Data published in patent publication US20160009819A1 (SHIONOGI, published 2016).
Substitutions are numbered along the chain they refer to. Each block holds one binder with its values, some of them ahead of it.

What was measured:
[1] = molecular target: T1, mouse EL with C2 tag (mouse, UniProt Q9WVG5 21-500); experiment: ELISA: antibody captured on anti-mouse IgG-Fc plate, C2-tagged EL heparin extract added, anti-C2-tag detection, A450 (Example 8)
T1 construct: Heparin extract of transfected HEK293F cells; also called mouse E1; not shown: C2 tag
T1 sequence (looked up): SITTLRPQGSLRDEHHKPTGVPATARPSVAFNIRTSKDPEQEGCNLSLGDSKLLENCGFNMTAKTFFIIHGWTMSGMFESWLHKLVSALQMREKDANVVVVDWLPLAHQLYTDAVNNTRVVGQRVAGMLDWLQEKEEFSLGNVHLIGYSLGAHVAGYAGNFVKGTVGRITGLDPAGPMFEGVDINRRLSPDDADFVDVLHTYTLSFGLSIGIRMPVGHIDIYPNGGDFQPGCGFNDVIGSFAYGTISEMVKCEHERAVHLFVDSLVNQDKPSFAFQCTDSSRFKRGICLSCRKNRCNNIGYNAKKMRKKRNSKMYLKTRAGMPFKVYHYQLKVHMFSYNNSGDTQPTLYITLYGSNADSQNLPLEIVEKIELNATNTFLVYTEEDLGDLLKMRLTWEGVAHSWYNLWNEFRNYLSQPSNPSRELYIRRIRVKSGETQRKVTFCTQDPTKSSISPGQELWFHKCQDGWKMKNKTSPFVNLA
Experimental: (§1) Assay buffer containing 15 μl of anti-EL antibody was added to anti-mouse IgG-Fc antibody-immobilized microtiter plate, and incubated for 2 hr. […] After washing the wells three times with 90 μL, of washing buffer, 15 μl of assay buffer containing biotin-labeled anti-C2-tag antibody and HRP-labeled Streptavidin were added to the wells and incubated at room temperature for 1 hr. After washing the wells three times with 90 μL of washing buffer, 15 μL of TMB+-Substrate-Chromogen (DAKO) was added and incubated at room temperature for 30 min and then 15 μL of 0.05 M H2SO₄ was added and absorbance at 450 nm was measured (FIG. 3A-3K).

[2] = molecular target: T2, baboon EL (vascular endothelial lipase) with C2 tag (baboon, UniProt Q9Y5X9 21-500 (human entry), limits assumed); experiment: as above
T2 construct: also called baboon EL-C2 tag
T2 chain: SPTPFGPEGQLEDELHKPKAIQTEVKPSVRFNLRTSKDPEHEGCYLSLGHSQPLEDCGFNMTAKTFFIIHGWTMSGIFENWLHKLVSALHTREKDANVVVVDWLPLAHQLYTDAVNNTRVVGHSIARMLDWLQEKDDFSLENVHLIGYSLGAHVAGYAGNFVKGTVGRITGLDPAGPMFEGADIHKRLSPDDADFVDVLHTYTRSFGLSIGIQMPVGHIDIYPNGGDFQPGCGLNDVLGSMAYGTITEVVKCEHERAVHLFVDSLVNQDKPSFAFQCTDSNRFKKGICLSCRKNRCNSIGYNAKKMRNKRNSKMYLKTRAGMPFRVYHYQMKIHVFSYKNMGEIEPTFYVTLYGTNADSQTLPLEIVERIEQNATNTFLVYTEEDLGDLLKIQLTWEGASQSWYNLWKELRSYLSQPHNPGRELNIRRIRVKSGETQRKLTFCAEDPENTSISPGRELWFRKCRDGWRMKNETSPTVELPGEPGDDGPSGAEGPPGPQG
Experimental: as §1

[3] = molecular target: T3, human [1-305]-mouse chimeric EL with C2 tag (human; mouse, UniProt Q9WVG5 306-500); experiment: SPR (Biacore), EL captured by anti-C2-tag antibody on CM5 chip, antibody injected, bivalent fit
T3 construct: Heparin extract of transfected HEK293F cells; probably 97; Built here from the name of the chimera; not shown: C2 tag
T3 sequence: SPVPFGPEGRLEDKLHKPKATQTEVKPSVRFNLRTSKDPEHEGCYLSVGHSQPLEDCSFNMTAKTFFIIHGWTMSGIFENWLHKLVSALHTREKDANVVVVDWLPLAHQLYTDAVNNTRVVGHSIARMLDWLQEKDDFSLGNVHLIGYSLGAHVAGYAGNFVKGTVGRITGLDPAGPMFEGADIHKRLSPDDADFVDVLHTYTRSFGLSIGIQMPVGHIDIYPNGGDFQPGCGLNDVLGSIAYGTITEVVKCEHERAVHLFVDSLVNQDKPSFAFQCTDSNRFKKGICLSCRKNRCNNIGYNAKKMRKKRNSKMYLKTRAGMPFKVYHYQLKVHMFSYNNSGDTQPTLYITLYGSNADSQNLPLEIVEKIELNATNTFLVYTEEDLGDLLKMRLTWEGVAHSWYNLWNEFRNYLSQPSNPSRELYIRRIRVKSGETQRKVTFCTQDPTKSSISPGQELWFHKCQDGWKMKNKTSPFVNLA
Experimental: (§2) The binding affinities of anti-EL antibodies were measured using Biacore. […] Then, anti-EL antibodies were added and the binding affinities were calculated by bivalent fitting of BIAevaluation software.

[4] = molecular target: T4, human [1-157]-mouse chimeric EL with C2 tag (human; mouse, UniProt Q9WVG5 158-500); experiment: ELISA: antibody captured on anti-mouse IgG-Fc plate, C2-tagged EL heparin extract added, anti-C2-tag detection, A450 (Example 8)
T4 construct: Heparin extract of transfected HEK293F cells; shifted by one: 4); Built here from the name of the chimera; not shown: C2 tag
T4 sequence: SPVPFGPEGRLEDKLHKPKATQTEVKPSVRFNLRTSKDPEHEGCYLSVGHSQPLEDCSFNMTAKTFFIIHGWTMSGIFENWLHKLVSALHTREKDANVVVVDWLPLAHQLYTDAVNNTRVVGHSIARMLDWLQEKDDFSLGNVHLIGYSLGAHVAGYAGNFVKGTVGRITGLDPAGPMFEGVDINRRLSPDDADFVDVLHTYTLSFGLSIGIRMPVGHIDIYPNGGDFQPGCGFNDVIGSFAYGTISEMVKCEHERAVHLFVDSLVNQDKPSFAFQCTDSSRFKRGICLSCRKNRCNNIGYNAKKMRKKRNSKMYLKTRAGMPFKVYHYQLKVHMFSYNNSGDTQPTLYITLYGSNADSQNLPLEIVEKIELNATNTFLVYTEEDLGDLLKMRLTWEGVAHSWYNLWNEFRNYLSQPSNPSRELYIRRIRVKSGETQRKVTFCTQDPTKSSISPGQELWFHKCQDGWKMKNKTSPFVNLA
Experimental: as §1

[5] = molecular target: T2, baboon EL (vascular endothelial lipase) …; experiment: SPR (Biacore), EL captured by anti-C2-tag antibody on CM5 chip, antibody injected, bivalent fit
Experimental: as §2

B1: 16B3 antibody (antibody, V domains shown)
VH: DVKLVESGGGLVQPGGSLKLSCTASGFTFSGYTMSWVRQTPEKRLELVAEISFARDRAFYPDTVKGRFTISRDNAKNTLYLQMSSLKSEDTAMYYCTRLGGRNHDYWYFDVWGTGTTVTVSS
VL: DIVLTQSPTSLAVSPGQRATISCRASESVEYYGTSLMQWYQQKPGQRPQLLIYAASNVESGVPARFSGSGSGTDFSLNIHPVEEDDIAVYFCQQSWKVPFTFGSGTKLEIK
notes: Mouse hybridoma antibody, IgG2a
binding result [1]: no binding (tested: about 300 ng/mL)

B2: 16E7 antibody (antibody, V domains shown)
VH: B1 VH with D1E, T23A, G31S, A54T, D56S, T97A, R102N, H104Y
VL: B1 VL with P15L, Q49K, V89M
notes: Mouse hybridoma antibody, IgG1
EC50 (read off the curve) [2]: ~10 ng/mL
kon [3]: 950000 M⁻¹ s⁻¹

B3: 14A1 antibody (antibody, V domains shown)
VH: QIQLVQSGPELKKPGETVKISCKASGYTFTNYGMNWVKQAPGKGLKWMGWINTYSGVPTYADDFKGRFAFSLETSASTAYLQINNFKNEDTATYFCARFSYYGRHYFDYWGQGTALTASS
VL: DIVLTQSPASLAVSLGQRATISCKASQSVDYDGDSYMNWYQQKPGQPPKLLIYAASNLKSGIPARFSGSGSGTDFTLNIHPVEEEDAATYYCQQTTDDPPWTFGGGTKLEIK
notes: as for B2
binding result [1]: no binding (tested: about 300 ng/mL)

B4: 2D5 antibody (antibody, V domains shown)
VH: B3 VH with A61T, Y80F, F86L, A115T, A118V
VL: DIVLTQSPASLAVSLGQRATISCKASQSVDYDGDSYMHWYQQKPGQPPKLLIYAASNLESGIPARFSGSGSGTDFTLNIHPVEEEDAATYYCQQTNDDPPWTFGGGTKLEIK
notes: as for B1
binding result [1]: no binding (tested: about 300 ng/mL)

Further lines, results first:

binding result [1]: no binding (tested: about 300 ng/mL)
B5: 7D4 antibody (antibody, V domains shown)
VH: B3 VH with G44D, F86L, A115T, A118V
VL: B3 VL with K49Q, K59G, Q93H, T95S
notes: as for B2

binding result [1]: no binding (tested: about 300 ng/mL)
B6: 23H8 antibody (antibody, V domains shown)
VH: EVQLQQSGPELLKPGASVKISCKASGYTFTDNTIHWVKQSHGKSLEWIGHINPYYGGTNNNEKFKDKATLTVDKSSSTAYMELRSLTSEDSAIYYCARKGIYYSSPFDYWGQGTTLTVSS
VL: DIQMTQTTSSLSASLGDRVTISCRASQDINNYLNWYQQKPDGTVKLLISYTSKLHSGVPSRFSGSGSGTDYSLTISNLEREDFATYFCQQGNTLPFTFGSGTNLEIK
notes: as for B1

binding result [4]: no binding (tested: about 300 ng/mL)
binding result [1]: no binding (tested: about 300 ng/mL)
kon [5]: 67000 M⁻¹ s⁻¹
B7: 19E7 antibody (antibody, V domains shown)
VH: QVQLQQPGSVLVRPGASVKLSCKASGYTFTTYWMHWVKQRPGQGLEWIGEIHPYSGNNNNNEKFKGKATLTVDTSSSTAYVDLSRLTSEDSAVYYCARYDSNYVFAYWGQGTLVTVSA
VL: QIVLTQSPAIMSASPGEGVTITCSASSSVSYMHWFQQKPGTSPKLWIYSTSNLASGVPARFSGSGSGTSYSLTISRMEAEDAATYYCQQRDSYLTFGSGTKLEVK
notes: as for B1

binding result [1]: no binding (tested: about 300 ng/mL)
B8: 13B3 antibody (antibody, V domains shown)
VH: EVQLQQSGPELLKPGASVKISCKASGYTFTEYTMHWVKQSHGKSLEWIGSINPYYGGTSYNEKFKDKATLTVDKSSNTAYMEFRSLTSEDCAVYYCARYGNYVGYFDYWGQGTTLTVSS
VL: ENVLTQSPAIMSASLGEKVTMSCRASSSVHYMYWYQQKSDASPKLWIYYTSNLAPGVPDRFSGSGSGNSYSLTISSMEGEDAATYYCQQFTSSPYTFGGGTKLEIK
notes: as for B1

binding result [1]: no binding (tested: about 300 ng/mL)
B9: 53A11 antibody (antibody, V domains shown)
VH: EVQLQQSGPELLKPGASVKISCKASGYTFTDYTMHWVKQSHGKSLEWIGGINPYYGGTTYNEKFKDKATLTVDKSSSTAYMELRSLTSEDSAVYYCAKGDYYGGSYNYWGQGTTLTVSS
VL: DIVLTQSLATLSVTPGDSVSLSCRASQDISNSLHWYQQKSHESPRLLIKYASQSISGIPSRFSGSGSGTDFTLSINSVETEDFGMYFCQQSNSWPYTFGGGTKLEIK
notes: as for B1

binding result [1]: no binding (tested: about 300 ng/mL)
B10: 55A1 antibody (antibody, V domains shown)
VH: QIHLVQSGPELKKPGETVKISCKASGYTFTNYGMNWVKQAPGKGLKWMGWINTYSGVPTYAGDFKGRFAFSLETSASTAYLQINNLKNEDTATYFCARRGYYGRRYFDVWGTGTTVTVSS
VL: DIVLTQSPASLAVSLGQRATISCKASQSVDYDVDSYMHWYQQKPGQPPKLLIYAASNLASGIPARFSGGGSGTDFTLNIHPVEEEDVATYYCQQTIEDPPTFGGGTKLEIK
notes: as for B1
